Experimental data published in publication PMC3516504.

Assays:
[1] = target: Calmodulin, Ca2+-bound (Ca2+-CaM) (UniProt P0DP23); assay: native gel or EMSA; non-denaturing PAGE band shift; increasing amounts of Lf incubated with a constant amount of Ca2+-CaM; running buffer 0.1 mM CaCl2, samples 0.5 mM CaCl2, no urea
[2] = target: Dansylated calmodulin, Ca2+-bound (Ca2+-dCaM) (UniProt P0DP23); assay: other fluorescence titration; dansyl fluorescence (excitation 340 nm, intensity at 485 nm); ~80 µM Lf titrated into 1.4 µM dansylated CaM; 50 mM Tris pH 7.5, 1 mM CaCl2, 100 mM KCl (also run at 50 and 150 mM KCl); one site model, CaLigator; triplicate
[3] = target: Calmodulin, Ca2+-bound (Ca2+-CaM) (UniProt P0DP23); assay: NMR titration; TROSY-HSQC of 2H/15N-labelled Ca2+-CaM titrated with unlabelled apo-Lf (titration data not shown); 20 mM Bis-Tris pH 6.8, 150 mM KCl, 4 mM CaCl2, 37 °C

stoichiometry N [1] | Kd [2] [nM] | stoichiometry N [3] | Substance
1 | 2100 | – | Human lactoferrin, iron-saturated (Fe3+-Lf) (natural protein)
1 | 3500 | 1 | Human lactoferrin, iron-free (apo-Lf) (natural protein)
